This data set concerns the molecule itself. The data set is described as follows: cryo-EM structure; single-particle cryo-EM of purified SOS1 in 20 mM HEPES pH 7.5, 150 mM NaCl, 5 mM β-ME, 0.007% GDN; two conformations (SOS1 at 2.8 Å, SOS1^expand at 3.4 Å).

B1: Arabidopsis thaliana Salt-overly-sensitive 1 (SOS1), full-length wild type (natural protein, UniProt Q9LKW9 1-1146, looked up)
chain: MTTVIDATMAYRFLEEATDSSSSSSSSKLESSPVDAVLFVGMSLVLGIASRHLLRGTRVPYTVALLVIGIALGSLEYGAKHNLGKIGHGIRIWNEIDPELLLAVFLPALLFESSFSMEVHQIKRCLGQMVLLAVPGVLISTACLGSLVKVTFPYEWDWKTSLLLGGLLSATDPVAVVALLKELGASKKLSTIIEGESLMNDGTAIVVFQLFLKMAMGQNSDWSSIIKFLLKVALGAVGIGLAFGIASVIWLKFIFNDTVIEITLTIAVSYFAYYTAQEWAGASGVLTVMTLGMFYAAFARTAFKGDSQKSLHHFWEMVAYIANTLIFILSGVVIAEGILDSDKIAYQGNSWRFLFLLYVYIQLSRVVVVGVLYPLLCRFGYGLDWKESIILVWSGLRGAVALALSLSVKQSSGNSHISKETGTLFLFFTGGIVFLTLIVNGSTTQFVLRLLRMDILPAPKKRILEYTKYEMLNKALRAFQDLGDDEELGPADWPTVESYISSLKGSEGELVHHPHNGSKIGSLDPKSLKDIRMRFLNGVQATYWEMLDEGRISEVTANILMQSVDEALDQVSTTLCDWRGLKPHVNFPNYYNFLHSKVVPRKLVTYFAVERLESACYISAAFLRAHTIARQQLYDFLGESNIGSIVINESEKEGEEAKKFLEKVRSSFPQVLRVVKTKQVTYSVLNHLLGYIENLEKVGLLEEKEIAHLHDAVQTGLKKLLRNPPIVKLPKLSDMITSHPLSVALPPAFCEPLKHSKKEPMKLRGVTLYKEGSKPTGVWLIFDGIVKWKSKILSNNHSLHPTFSHGSTLGLYEVLTGKPYLCDLITDSMVLCFFIDSEKILSLQSDSTIDDFLWQESALVLLKLLRPQIFESVAMQELRALVSTESSKLTTYVTGESIEIDCNSIGLLLEGFVKPVGIKEELISSPAALSPSNGNQSFHNSSEASGIMRVSFSQQATQYIVETRARAIIFNIGAFGADRTLHRRPSSLTPPRSSSSDQLQRSFRKEHRGLMSWPENIYAKQQQEINKTTLSLSERAMQLSIFGSMVNVYRRSVSFGGIYNNKLQDNLLYKKLPLNPAQGLVSAKSESSIVTKKQLETRKHACQLPLKGESSTRQNTMVESSDEEDEDEGIVVRIDSPSKIVFRNDL
notes: Arabidopsis thaliana SOS1 Na+/H+ antiporter, ecotype Columbia (Col-0) cDNA, 1146 residues; model holds residues 32-972, 1007-1017 and 1030-1048; Eluate was incubated with PreScission protease for 3 h before SEC; residues of the protease site may remain at the C-terminus; also called AtSOS1; SOS1-ClassII; source: HEK293F cells (Bac-to-Bac baculovirus, pEG-BacMam), purified (Streptactin beads, …)
Usually stoichiometry N stands for the number of molecules, sites or subunits per partner or assembly. Regarding B1, the “stoichiometry N” value was found to be 2.

The values above are taken from paper PMC10372031, “Architecture and autoinhibitory mechanism of the plasma membrane Na^+/H^+ antiporter SOS1 in Arabidopsis” (Nature Communications, 2023).
